The record followed here is patent US20140087995A1 (published 2014).

Numbered stars: 1 amine (or outer) side, 2 acyl side, 3 side chain; on linkers, the order of the positions; unused ones are H or OH. Bridge positions count the residues as written; N and C are the ends. Side chains are listed from the residue outwards. Ends that are not written are not given here. * marks the point of attachment. C20 diacid = O=C(O)CCCCCCCCCCCCCCCCCCC(=O)*; γGlu = O=C(O)[C@H](CCC(=O)[*:2])N[*:1]

B1: N^ε1-[(4S)-4-carboxy-4-(19-carboxynonadecanoylamino)butanoyl]-[Asp14,Arg17,Pro21,Pro27,Pro34,Arg35]-h-amylin (peptide)
peptide: K([γGlu-C20 diacid])CNTATCATQRLADFLRHSSPNFGAIPSSTNVGPRTY-NH2
modifications: disulfide 2-7; N-terminus assumed
SMILES: CC[C@H](C)[C@H](NC(=O)[C@H](C)NC(=O)CNC(=O)[C@H](Cc1ccccc1)NC(=O)[C@H](CC(N)=O)NC(=O)[C@@H]1CCCN1C(=O)[C@H](CO)NC(=O)[C@H](CO)NC(=O)[C@H](Cc1c[nH]cn1)NC(=O)[C@H](CCCNC(=N)N)NC(=O)[C@H](CC(C)C)NC(=O)[C@H](Cc1ccccc1)NC(=O)[C@H](CC(=O)O)NC(=O)[C@H](C)NC(=O)[C@H](CC(C)C)NC(=O)[C@H](CCCNC(=N)N)NC(=O)[C@H](CCC(N)=O)NC(=O)[C@@H](NC(=O)[C@H](C)NC(=O)[C@@H]1CSSC[C@H](NC(=O)[C@@H](N)CCCCNC(=O)CC[C@H](NC(=O)CCCCCCCCCCCCCCCCCCC(=O)O)C(=O)O)C(=O)N[C@@H](CC(N)=O)C(=O)N[C@@H]([C@@H](C)O)C(=O)N[C@@H](C)C(=O)N[C@@H]([C@@H](C)O)C(=O)N1)[C@@H](C)O)C(=O)N1CCC[C@H]1C(=O)N[C@@H](CO)C(=O)N[C@@H](CO)C(=O)N[C@H](C(=O)N[C@@H](CC(N)=O)C(=O)N[C@H](C(=O)NCC(=O)N1CCC[C@H]1C(=O)N[C@@H](CCCNC(=N)N)C(=O)N[C@H](C(=O)N[C@@H](Cc1ccc(O)cc1)C(N)=O)[C@@H](C)O)C(C)C)[C@@H](C)O
B2: N^ε1-[(4S)-4-carboxy-4-(19-carboxynonadecanoylamino)butanoyl]-[Asp14,Arg17,Pro21,Pro27,Pro34,Glu35]-h-amylin (peptide)
peptide: K([γGlu-C20 diacid])CNTATCATQRLADFLRHSSPNFGAIPSSTNVGPETY-NH2
modifications: disulfide 2-7; N-terminus assumed
SMILES: CC[C@H](C)[C@H](NC(=O)[C@H](C)NC(=O)CNC(=O)[C@H](Cc1ccccc1)NC(=O)[C@H](CC(N)=O)NC(=O)[C@@H]1CCCN1C(=O)[C@H](CO)NC(=O)[C@H](CO)NC(=O)[C@H](Cc1c[nH]cn1)NC(=O)[C@H](CCCNC(=N)N)NC(=O)[C@H](CC(C)C)NC(=O)[C@H](Cc1ccccc1)NC(=O)[C@H](CC(=O)O)NC(=O)[C@H](C)NC(=O)[C@H](CC(C)C)NC(=O)[C@H](CCCNC(=N)N)NC(=O)[C@H](CCC(N)=O)NC(=O)[C@@H](NC(=O)[C@H](C)NC(=O)[C@@H]1CSSC[C@H](NC(=O)[C@@H](N)CCCCNC(=O)CC[C@H](NC(=O)CCCCCCCCCCCCCCCCCCC(=O)O)C(=O)O)C(=O)N[C@@H](CC(N)=O)C(=O)N[C@@H]([C@@H](C)O)C(=O)N[C@@H](C)C(=O)N[C@@H]([C@@H](C)O)C(=O)N1)[C@@H](C)O)C(=O)N1CCC[C@H]1C(=O)N[C@@H](CO)C(=O)N[C@@H](CO)C(=O)N[C@H](C(=O)N[C@@H](CC(N)=O)C(=O)N[C@H](C(=O)NCC(=O)N1CCC[C@H]1C(=O)N[C@@H](CCC(=O)O)C(=O)N[C@H](C(=O)N[C@@H](Cc1ccc(O)cc1)C(N)=O)[C@@H](C)O)C(C)C)[C@@H](C)O
B3: N^ε1-[(4S)-4-carboxy-4-(19-carboxynonadecanoylamino)butanoyl]-[His14,Arg17,Pro21,Pro27,Pro31,Pro34]-h-amylin (peptide)
peptide: K([γGlu-C20 diacid])CNTATCATQRLAHFLRHSSPNFGAIPSSTPVGPNTY-NH2
modifications: disulfide 2-7; N-terminus assumed
SMILES: CC[C@H](C)[C@H](NC(=O)[C@H](C)NC(=O)CNC(=O)[C@H](Cc1ccccc1)NC(=O)[C@H](CC(N)=O)NC(=O)[C@@H]1CCCN1C(=O)[C@H](CO)NC(=O)[C@H](CO)NC(=O)[C@H](Cc1c[nH]cn1)NC(=O)[C@H](CCCNC(=N)N)NC(=O)[C@H](CC(C)C)NC(=O)[C@H](Cc1ccccc1)NC(=O)[C@H](Cc1c[nH]cn1)NC(=O)[C@H](C)NC(=O)[C@H](CC(C)C)NC(=O)[C@H](CCCNC(=N)N)NC(=O)[C@H](CCC(N)=O)NC(=O)[C@@H](NC(=O)[C@H](C)NC(=O)[C@@H]1CSSC[C@H](NC(=O)[C@@H](N)CCCCNC(=O)CC[C@H](NC(=O)CCCCCCCCCCCCCCCCCCC(=O)O)C(=O)O)C(=O)N[C@@H](CC(N)=O)C(=O)N[C@@H]([C@@H](C)O)C(=O)N[C@@H](C)C(=O)N[C@@H]([C@@H](C)O)C(=O)N1)[C@@H](C)O)C(=O)N1CCC[C@H]1C(=O)N[C@@H](CO)C(=O)N[C@@H](CO)C(=O)N[C@H](C(=O)N1CCC[C@H]1C(=O)N[C@H](C(=O)NCC(=O)N1CCC[C@H]1C(=O)N[C@@H](CC(N)=O)C(=O)N[C@H](C(=O)N[C@@H](Cc1ccc(O)cc1)C(N)=O)[C@@H](C)O)C(C)C)[C@@H](C)O
B4: N^ε1-[(4S)-4-carboxy-4-[[(4S)-4-carboxy-4-(19-carboxynonadecanoylamino)butanoyl]amino]butanoyl]-[Arg17,Pro21,Pro27,Pro31,Pro34,Arg35]-h-amylin (peptide)
peptide: K([γGlu-γGlu-C20 diacid])CNTATCATQRLANFLRHSSPNFGAIPSSTPVGPRTY-NH2
modifications: disulfide 2-7; N-terminus assumed
SMILES: CC[C@H](C)[C@H](NC(=O)[C@H](C)NC(=O)CNC(=O)[C@H](Cc1ccccc1)NC(=O)[C@H](CC(N)=O)NC(=O)[C@@H]1CCCN1C(=O)[C@H](CO)NC(=O)[C@H](CO)NC(=O)[C@H](Cc1c[nH]cn1)NC(=O)[C@H](CCCNC(=N)N)NC(=O)[C@H](CC(C)C)NC(=O)[C@H](Cc1ccccc1)NC(=O)[C@H](CC(N)=O)NC(=O)[C@H](C)NC(=O)[C@H](CC(C)C)NC(=O)[C@H](CCCNC(=N)N)NC(=O)[C@H](CCC(N)=O)NC(=O)[C@@H](NC(=O)[C@H](C)NC(=O)[C@@H]1CSSC[C@H](NC(=O)[C@@H](N)CCCCNC(=O)CC[C@H](NC(=O)CC[C@H](NC(=O)CCCCCCCCCCCCCCCCCCC(=O)O)C(=O)O)C(=O)O)C(=O)N[C@@H](CC(N)=O)C(=O)N[C@@H]([C@@H](C)O)C(=O)N[C@@H](C)C(=O)N[C@@H]([C@@H](C)O)C(=O)N1)[C@@H](C)O)C(=O)N1CCC[C@H]1C(=O)N[C@@H](CO)C(=O)N[C@@H](CO)C(=O)N[C@H](C(=O)N1CCC[C@H]1C(=O)N[C@H](C(=O)NCC(=O)N1CCC[C@H]1C(=O)N[C@@H](CCCNC(=N)N)C(=O)N[C@H](C(=O)N[C@@H](Cc1ccc(O)cc1)C(N)=O)[C@@H](C)O)C(C)C)[C@@H](C)O
B5: N^ε1-[(4S)-4-carboxy-4-(19-carboxynonadecanoylamino)butanoyl]-[Glu14,Arg17,Pro21,Pro27,His35]-h-amylin (peptide)
peptide: K([γGlu-C20 diacid])CNTATCATQRLAEFLRHSSPNFGAIPSSTNVGSHTY-NH2
modifications: disulfide 2-7; N-terminus assumed
SMILES: CC[C@H](C)[C@H](NC(=O)[C@H](C)NC(=O)CNC(=O)[C@H](Cc1ccccc1)NC(=O)[C@H](CC(N)=O)NC(=O)[C@@H]1CCCN1C(=O)[C@H](CO)NC(=O)[C@H](CO)NC(=O)[C@H](Cc1c[nH]cn1)NC(=O)[C@H](CCCNC(=N)N)NC(=O)[C@H](CC(C)C)NC(=O)[C@H](Cc1ccccc1)NC(=O)[C@H](CCC(=O)O)NC(=O)[C@H](C)NC(=O)[C@H](CC(C)C)NC(=O)[C@H](CCCNC(=N)N)NC(=O)[C@H](CCC(N)=O)NC(=O)[C@@H](NC(=O)[C@H](C)NC(=O)[C@@H]1CSSC[C@H](NC(=O)[C@@H](N)CCCCNC(=O)CC[C@H](NC(=O)CCCCCCCCCCCCCCCCCCC(=O)O)C(=O)O)C(=O)N[C@@H](CC(N)=O)C(=O)N[C@@H]([C@@H](C)O)C(=O)N[C@@H](C)C(=O)N[C@@H]([C@@H](C)O)C(=O)N1)[C@@H](C)O)C(=O)N1CCC[C@H]1C(=O)N[C@@H](CO)C(=O)N[C@@H](CO)C(=O)N[C@H](C(=O)N[C@@H](CC(N)=O)C(=O)N[C@H](C(=O)NCC(=O)N[C@@H](CO)C(=O)N[C@@H](Cc1c[nH]cn1)C(=O)N[C@H](C(=O)N[C@@H](Cc1ccc(O)cc1)C(N)=O)[C@@H](C)O)C(C)C)[C@@H](C)O
B6: N^ε1-[(4S)-4-carboxy-4-(19-carboxynonadecanoylamino)butanoyl]-[Glu14,Arg17,Pro21,Pro27,Pro34,His35]-h-amylin (peptide)
peptide: K([γGlu-C20 diacid])CNTATCATQRLAEFLRHSSPNFGAIPSSTNVGPHTY-NH2
modifications: disulfide 2-7

The first experiment addresses T1, human calcitonin receptor (human, UniProt P30988 25-474).
T1 construct: whole, on cells; also called hCTR; hCT
T1 sequence (looked up): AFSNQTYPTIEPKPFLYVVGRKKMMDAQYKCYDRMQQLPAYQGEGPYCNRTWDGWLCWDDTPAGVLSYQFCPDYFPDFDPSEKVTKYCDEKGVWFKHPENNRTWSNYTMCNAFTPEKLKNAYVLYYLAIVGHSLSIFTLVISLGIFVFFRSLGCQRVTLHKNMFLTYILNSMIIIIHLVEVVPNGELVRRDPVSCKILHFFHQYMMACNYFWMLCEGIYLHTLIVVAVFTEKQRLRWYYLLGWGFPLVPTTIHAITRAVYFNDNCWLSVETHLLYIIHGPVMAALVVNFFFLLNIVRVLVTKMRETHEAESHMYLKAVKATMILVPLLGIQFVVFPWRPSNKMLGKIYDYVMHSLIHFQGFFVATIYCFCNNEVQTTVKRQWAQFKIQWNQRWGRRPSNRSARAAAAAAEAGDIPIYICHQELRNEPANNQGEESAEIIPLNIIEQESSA
Put plainly: SPA competition against 125I-calcitonin, membranes of BHK cells with human calcitonin receptor (Assay VII). An outline of the steps:
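BHK hCTR membranes 35 ng/μL + SPA beads 0.05 mg/well; buffer 50 mM Hepes pH 7.4, 1 mM CaCl2, 5 mM MgCl₂, 0.1% OA, 0.02% Tween20. 120 min, 25° C., shaking. Scintillation count; IC50 by one-site binding competition.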
What is called IC50 is the point on the concentration scale where inhibition reaches its midpoint. As for B1, the half-inhibitory concentration (IC50) is 42.5 nM.
B2: the half-maximal inhibitory concentration (IC50) turned out to be 3.27 nM.
Same read-out and setting: as for B3, the figure is 2.04 nM.
With B4, the half-inhibitory concentration (IC50) was 42.8 nM.
Consider B5, for which the IC50 was determined as 26.1 nM.
Turning to B6, the IC50 amounted to 3.8 nM.

The target in a further experiment is T1, human calcitonin receptor. Put plainly: ratio of IC50 at human calcitonin receptor to IC50 at human amylin receptor (SPA competition assays). An outline of the steps: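 Scintillation proximity competition binding on cell membranes at 35 ng/μL with SPA beads, in 50 mM Hepes pH 7.4, 1 mM CaCl2, 5 mM MgCl₂, 0.1% OA, 0.02% Tween20. Incubated 120 min at 25° C with shaking. IC₅₀ from one-site competition fit.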
For the molecule B1, the “Ratio hCT/hAmylin binding” value was 151.
As to B2, the “Ratio hCT/hAmylin binding” value worked out at 16.7.
Still for that read-out and setting: next, B3: 24.8; B4: 48.6; B5: 26.4.
Take B6: the “Ratio hCT/hAmylin binding” value amounted to 21.2.
